Measurements: PMC3093405, “A Motif Unique to the Human Dead-Box Protein DDX3 Is Important for Nucleic Acid Binding, ATP Hydrolysis, RNA/DNA Unwinding and HIV-1 Replication” (PLoS ONE, 2011)

Experiments:
[1] = target: DDX3ΔINS del250-259 (Homo sapiens) (UniProt O00571); experiment: filter binding; settings: no ATP hydrolysis; 3 mM Mg2+; 50 µg/ml salmon sperm DNA; EMSA: on ice, protein buffer 25 mM Tris-HCl pH 7.5, 0.5 mM DTT, 20% glycerol, 100 mM NaCl plus 5x binding buffer (10% glycerol, 5 mM MgCl2, 2.5 mM EDTA pH 8 …)
DDX3ΔINS del250-259 (Homo sapiens), sequence (O00571 other isoform, or with tags, fused parts or gaps mutant): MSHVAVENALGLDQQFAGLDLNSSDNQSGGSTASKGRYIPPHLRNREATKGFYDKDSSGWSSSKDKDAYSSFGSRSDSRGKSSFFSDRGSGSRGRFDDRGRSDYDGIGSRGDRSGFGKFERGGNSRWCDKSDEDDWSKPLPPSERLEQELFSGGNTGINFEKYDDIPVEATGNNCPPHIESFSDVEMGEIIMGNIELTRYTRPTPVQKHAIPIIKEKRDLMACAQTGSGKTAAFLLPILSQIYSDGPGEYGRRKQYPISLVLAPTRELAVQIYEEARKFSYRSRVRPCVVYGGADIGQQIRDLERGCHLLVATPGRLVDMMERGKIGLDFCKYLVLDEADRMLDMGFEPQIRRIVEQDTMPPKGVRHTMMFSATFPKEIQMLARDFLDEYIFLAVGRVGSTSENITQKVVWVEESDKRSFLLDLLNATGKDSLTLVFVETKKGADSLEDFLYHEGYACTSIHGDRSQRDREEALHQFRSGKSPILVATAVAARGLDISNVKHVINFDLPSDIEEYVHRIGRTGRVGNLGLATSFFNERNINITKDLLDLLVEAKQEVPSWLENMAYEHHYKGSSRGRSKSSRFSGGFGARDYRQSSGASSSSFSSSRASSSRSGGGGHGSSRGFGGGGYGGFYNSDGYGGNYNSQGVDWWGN

DDX3wt (Homo sapiens) = DDX3wt (Homo sapiens) (UniProt O00571); experiment: filter binding; settings: no ATP hydrolysis; 3 mM Mg2+; 50 µg/ml salmon sperm DNA; EMSA: on ice, protein buffer 25 mM Tris-HCl pH 7.5, 0.5 mM DTT, 20% glycerol, 100 mM NaCl plus 5x binding buffer (10% glycerol, 5 mM MgCl2, 2.5 mM EDTA pH 8 …)
DDX3wt (Homo sapiens), sequence (O00571 whole entry): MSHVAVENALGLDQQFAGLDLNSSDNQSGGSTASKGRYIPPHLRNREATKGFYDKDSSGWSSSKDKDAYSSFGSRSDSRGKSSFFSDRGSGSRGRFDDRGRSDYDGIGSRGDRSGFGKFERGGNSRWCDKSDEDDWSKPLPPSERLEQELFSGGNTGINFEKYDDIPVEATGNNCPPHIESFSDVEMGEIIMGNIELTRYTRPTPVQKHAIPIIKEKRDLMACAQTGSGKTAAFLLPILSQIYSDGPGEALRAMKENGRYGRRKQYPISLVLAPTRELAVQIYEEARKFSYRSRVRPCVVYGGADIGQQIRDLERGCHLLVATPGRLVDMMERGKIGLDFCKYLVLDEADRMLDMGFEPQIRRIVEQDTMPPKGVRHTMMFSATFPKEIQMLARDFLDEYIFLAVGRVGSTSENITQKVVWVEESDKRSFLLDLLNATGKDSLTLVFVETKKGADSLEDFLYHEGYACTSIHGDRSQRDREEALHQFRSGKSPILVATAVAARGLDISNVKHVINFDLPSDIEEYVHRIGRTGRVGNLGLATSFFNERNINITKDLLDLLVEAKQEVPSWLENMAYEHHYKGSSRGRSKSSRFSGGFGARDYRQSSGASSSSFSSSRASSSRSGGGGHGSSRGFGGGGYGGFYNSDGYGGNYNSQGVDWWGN

18/36mer dsDNA
binding signal (fold reduced affinity vs DDX3wt) [1]: 2.1
binding signal (fold (reference affinity)) (DDX3wt (Homo sapiens)): 1
